Patent US20140087995A1 (published 2014)
Numbered stars: 1 amine (or outer) side, 2 acyl side, 3 side chain; on linkers, the order of the positions; unused ones are H or OH. Bridge positions count the residues as written; N and C are the ends. Side chains are listed from the residue outwards. Ends that are not written are not given here. * marks the point of attachment. C20 diacid = O=C(O)CCCCCCCCCCCCCCCCCCC(=O)*; γGlu = O=C(O)[C@H](CCC(=O)[*:2])N[*:1]

T1: human calcitonin receptor (human, UniProt P30988 25-474)
T1 construct: whole, on cells; also called hCTR; hCT
T1 sequence (looked up): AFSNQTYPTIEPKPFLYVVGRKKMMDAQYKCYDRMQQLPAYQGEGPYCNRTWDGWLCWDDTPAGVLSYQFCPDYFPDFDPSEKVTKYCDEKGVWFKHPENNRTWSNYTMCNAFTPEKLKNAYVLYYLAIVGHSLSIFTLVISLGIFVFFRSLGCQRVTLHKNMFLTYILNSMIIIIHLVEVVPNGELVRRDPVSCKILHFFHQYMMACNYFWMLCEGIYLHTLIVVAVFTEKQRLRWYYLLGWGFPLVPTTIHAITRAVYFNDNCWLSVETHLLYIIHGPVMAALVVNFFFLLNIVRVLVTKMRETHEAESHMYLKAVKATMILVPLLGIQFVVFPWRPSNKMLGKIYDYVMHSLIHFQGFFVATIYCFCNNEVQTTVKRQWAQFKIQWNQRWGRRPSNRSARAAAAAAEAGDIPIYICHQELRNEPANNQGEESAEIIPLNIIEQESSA

T2: rat calcitonin receptor (rat, UniProt P32214 25-516)
T2 construct: whole, on cells; also called rCTR; rat calcitonin (a) receptor
T2 sequence (looked up): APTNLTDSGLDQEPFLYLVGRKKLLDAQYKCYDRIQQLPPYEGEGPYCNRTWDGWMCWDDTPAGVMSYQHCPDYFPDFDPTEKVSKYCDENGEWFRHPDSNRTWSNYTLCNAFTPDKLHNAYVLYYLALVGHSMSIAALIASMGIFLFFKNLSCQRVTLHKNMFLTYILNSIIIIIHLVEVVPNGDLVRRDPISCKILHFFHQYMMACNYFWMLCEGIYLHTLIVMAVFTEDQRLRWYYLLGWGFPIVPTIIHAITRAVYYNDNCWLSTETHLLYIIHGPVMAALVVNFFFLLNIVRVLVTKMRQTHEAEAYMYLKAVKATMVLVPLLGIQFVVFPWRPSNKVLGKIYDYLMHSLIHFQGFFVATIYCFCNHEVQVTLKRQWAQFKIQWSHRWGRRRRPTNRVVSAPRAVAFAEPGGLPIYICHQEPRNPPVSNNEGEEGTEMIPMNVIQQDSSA

T3: rat amylin receptor (rat calcitonin receptor + rat RAMP 3) (rat, UniProt P32214 25-516; Q9JJ73 23-147)
T3 construct: whole, on cells; also called rAmylin-R; rat amylin 3(a) receptor
T3 sequence (looked up) 1: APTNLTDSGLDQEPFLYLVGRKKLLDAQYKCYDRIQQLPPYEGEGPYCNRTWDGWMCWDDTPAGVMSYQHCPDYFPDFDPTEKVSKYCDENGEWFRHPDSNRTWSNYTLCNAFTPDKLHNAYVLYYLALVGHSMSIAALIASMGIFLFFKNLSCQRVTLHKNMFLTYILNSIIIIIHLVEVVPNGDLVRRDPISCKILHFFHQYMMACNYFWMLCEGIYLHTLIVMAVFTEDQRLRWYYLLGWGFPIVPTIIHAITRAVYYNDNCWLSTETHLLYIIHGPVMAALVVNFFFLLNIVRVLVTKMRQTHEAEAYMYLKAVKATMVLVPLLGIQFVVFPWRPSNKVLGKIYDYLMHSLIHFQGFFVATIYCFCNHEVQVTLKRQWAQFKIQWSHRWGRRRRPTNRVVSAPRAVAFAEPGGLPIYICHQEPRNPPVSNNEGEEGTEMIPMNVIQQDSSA
T3 sequence (looked up) 2: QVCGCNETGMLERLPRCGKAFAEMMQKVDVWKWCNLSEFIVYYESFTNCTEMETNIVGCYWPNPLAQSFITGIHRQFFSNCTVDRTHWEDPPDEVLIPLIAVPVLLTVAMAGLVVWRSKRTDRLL

B1: N^ε1-[(4S)-4-carboxy-4-(19-carboxynonadecanoylamino)butanoyl]-[Arg17,Pro21,Pro27,His35]-h-amylin (peptide)
peptide: K([γGlu-C20 diacid])CNTATCATQRLANFLRHSSPNFGAIPSSTNVGSHTY-NH2
modifications: disulfide 2-7; N-terminus assumed
SMILES: CC[C@H](C)[C@H](NC(=O)[C@H](C)NC(=O)CNC(=O)[C@H](Cc1ccccc1)NC(=O)[C@H](CC(N)=O)NC(=O)[C@@H]1CCCN1C(=O)[C@H](CO)NC(=O)[C@H](CO)NC(=O)[C@H](Cc1c[nH]cn1)NC(=O)[C@H](CCCNC(=N)N)NC(=O)[C@H](CC(C)C)NC(=O)[C@H](Cc1ccccc1)NC(=O)[C@H](CC(N)=O)NC(=O)[C@H](C)NC(=O)[C@H](CC(C)C)NC(=O)[C@H](CCCNC(=N)N)NC(=O)[C@H](CCC(N)=O)NC(=O)[C@@H](NC(=O)[C@H](C)NC(=O)[C@@H]1CSSC[C@H](NC(=O)[C@@H](N)CCCCNC(=O)CC[C@H](NC(=O)CCCCCCCCCCCCCCCCCCC(=O)O)C(=O)O)C(=O)N[C@@H](CC(N)=O)C(=O)N[C@@H]([C@@H](C)O)C(=O)N[C@@H](C)C(=O)N[C@@H]([C@@H](C)O)C(=O)N1)[C@@H](C)O)C(=O)N1CCC[C@H]1C(=O)N[C@@H](CO)C(=O)N[C@@H](CO)C(=O)N[C@H](C(=O)N[C@@H](CC(N)=O)C(=O)N[C@H](C(=O)NCC(=O)N[C@@H](CO)C(=O)N[C@@H](Cc1c[nH]cn1)C(=O)N[C@H](C(=O)N[C@@H](Cc1ccc(O)cc1)C(N)=O)[C@@H](C)O)C(C)C)[C@@H](C)O
notes: synthetic analogue of human amylin; also called compound 60
B2: N^ε1-[(4S)-4-carboxy-4-(19-carboxynonadecanoylamino)butanoyl]-[Glu14,Arg17,Pro21,Pro27,Arg35]-h-amylin (peptide)
peptide: K([γGlu-C20 diacid])CNTATCATQRLAEFLRHSSPNFGAIPSSTNVGSRTY-NH2
modifications: disulfide 2-7; N-terminus assumed
SMILES: CC[C@H](C)[C@H](NC(=O)[C@H](C)NC(=O)CNC(=O)[C@H](Cc1ccccc1)NC(=O)[C@H](CC(N)=O)NC(=O)[C@@H]1CCCN1C(=O)[C@H](CO)NC(=O)[C@H](CO)NC(=O)[C@H](Cc1c[nH]cn1)NC(=O)[C@H](CCCNC(=N)N)NC(=O)[C@H](CC(C)C)NC(=O)[C@H](Cc1ccccc1)NC(=O)[C@H](CCC(=O)O)NC(=O)[C@H](C)NC(=O)[C@H](CC(C)C)NC(=O)[C@H](CCCNC(=N)N)NC(=O)[C@H](CCC(N)=O)NC(=O)[C@@H](NC(=O)[C@H](C)NC(=O)[C@@H]1CSSC[C@H](NC(=O)[C@@H](N)CCCCNC(=O)CC[C@H](NC(=O)CCCCCCCCCCCCCCCCCCC(=O)O)C(=O)O)C(=O)N[C@@H](CC(N)=O)C(=O)N[C@@H]([C@@H](C)O)C(=O)N[C@@H](C)C(=O)N[C@@H]([C@@H](C)O)C(=O)N1)[C@@H](C)O)C(=O)N1CCC[C@H]1C(=O)N[C@@H](CO)C(=O)N[C@@H](CO)C(=O)N[C@H](C(=O)N[C@@H](CC(N)=O)C(=O)N[C@H](C(=O)NCC(=O)N[C@@H](CO)C(=O)N[C@@H](CCCNC(=N)N)C(=O)N[C@H](C(=O)N[C@@H](Cc1ccc(O)cc1)C(N)=O)[C@@H](C)O)C(C)C)[C@@H](C)O
notes: synthetic analogue of human amylin; also called compound 51
B3: N^ε1-[(4S)-4-carboxy-4-(19-carboxynonadecanoylamino)butanoyl]-[His14,Arg17,Pro21,Pro27,His34]-h-amylin (peptide)
peptide: K([γGlu-C20 diacid])CNTATCATQRLAHFLRHSSPNFGAIPSSTNVGHNTY-NH2
modifications: disulfide 2-7; N-terminus assumed
SMILES: CC[C@H](C)[C@H](NC(=O)[C@H](C)NC(=O)CNC(=O)[C@H](Cc1ccccc1)NC(=O)[C@H](CC(N)=O)NC(=O)[C@@H]1CCCN1C(=O)[C@H](CO)NC(=O)[C@H](CO)NC(=O)[C@H](Cc1c[nH]cn1)NC(=O)[C@H](CCCNC(=N)N)NC(=O)[C@H](CC(C)C)NC(=O)[C@H](Cc1ccccc1)NC(=O)[C@H](Cc1c[nH]cn1)NC(=O)[C@H](C)NC(=O)[C@H](CC(C)C)NC(=O)[C@H](CCCNC(=N)N)NC(=O)[C@H](CCC(N)=O)NC(=O)[C@@H](NC(=O)[C@H](C)NC(=O)[C@@H]1CSSC[C@H](NC(=O)[C@@H](N)CCCCNC(=O)CC[C@H](NC(=O)CCCCCCCCCCCCCCCCCCC(=O)O)C(=O)O)C(=O)N[C@@H](CC(N)=O)C(=O)N[C@@H]([C@@H](C)O)C(=O)N[C@@H](C)C(=O)N[C@@H]([C@@H](C)O)C(=O)N1)[C@@H](C)O)C(=O)N1CCC[C@H]1C(=O)N[C@@H](CO)C(=O)N[C@@H](CO)C(=O)N[C@H](C(=O)N[C@@H](CC(N)=O)C(=O)N[C@H](C(=O)NCC(=O)N[C@@H](Cc1c[nH]cn1)C(=O)N[C@@H](CC(N)=O)C(=O)N[C@H](C(=O)N[C@@H](Cc1ccc(O)cc1)C(N)=O)[C@@H](C)O)C(C)C)[C@@H](C)O
notes: synthetic analogue of human amylin; also called compound 81
B4: N^ε1-[(4S)-4-carboxy-4-(19-carboxynonadecanoylamino)butanoyl]-[His14,Arg17,Pro21,Pro27,His35]-h-amylin (peptide)
peptide: K([γGlu-C20 diacid])CNTATCATQRLAHFLRHSSPNFGAIPSSTNVGSHTY-NH2
modifications: disulfide 2-7; N-terminus assumed
SMILES: CC[C@H](C)[C@H](NC(=O)[C@H](C)NC(=O)CNC(=O)[C@H](Cc1ccccc1)NC(=O)[C@H](CC(N)=O)NC(=O)[C@@H]1CCCN1C(=O)[C@H](CO)NC(=O)[C@H](CO)NC(=O)[C@H](Cc1c[nH]cn1)NC(=O)[C@H](CCCNC(=N)N)NC(=O)[C@H](CC(C)C)NC(=O)[C@H](Cc1ccccc1)NC(=O)[C@H](Cc1c[nH]cn1)NC(=O)[C@H](C)NC(=O)[C@H](CC(C)C)NC(=O)[C@H](CCCNC(=N)N)NC(=O)[C@H](CCC(N)=O)NC(=O)[C@@H](NC(=O)[C@H](C)NC(=O)[C@@H]1CSSC[C@H](NC(=O)[C@@H](N)CCCCNC(=O)CC[C@H](NC(=O)CCCCCCCCCCCCCCCCCCC(=O)O)C(=O)O)C(=O)N[C@@H](CC(N)=O)C(=O)N[C@@H]([C@@H](C)O)C(=O)N[C@@H](C)C(=O)N[C@@H]([C@@H](C)O)C(=O)N1)[C@@H](C)O)C(=O)N1CCC[C@H]1C(=O)N[C@@H](CO)C(=O)N[C@@H](CO)C(=O)N[C@H](C(=O)N[C@@H](CC(N)=O)C(=O)N[C@H](C(=O)NCC(=O)N[C@@H](CO)C(=O)N[C@@H](Cc1c[nH]cn1)C(=O)N[C@H](C(=O)N[C@@H](Cc1ccc(O)cc1)C(N)=O)[C@@H](C)O)C(C)C)[C@@H](C)O
notes: synthetic analogue of human amylin; also called compound 66
B5: N^ε1-[(4S)-4-carboxy-4-(19-carboxynonadecanoylamino)butanoyl]-[His14,Arg17,Pro21,Pro27,Arg34]-h-amylin (peptide)
peptide: K([γGlu-C20 diacid])CNTATCATQRLAHFLRHSSPNFGAIPSSTNVGRNTY-NH2
modifications: disulfide 2-7; N-terminus assumed
SMILES: CC[C@H](C)[C@H](NC(=O)[C@H](C)NC(=O)CNC(=O)[C@H](Cc1ccccc1)NC(=O)[C@H](CC(N)=O)NC(=O)[C@@H]1CCCN1C(=O)[C@H](CO)NC(=O)[C@H](CO)NC(=O)[C@H](Cc1c[nH]cn1)NC(=O)[C@H](CCCNC(=N)N)NC(=O)[C@H](CC(C)C)NC(=O)[C@H](Cc1ccccc1)NC(=O)[C@H](Cc1c[nH]cn1)NC(=O)[C@H](C)NC(=O)[C@H](CC(C)C)NC(=O)[C@H](CCCNC(=N)N)NC(=O)[C@H](CCC(N)=O)NC(=O)[C@@H](NC(=O)[C@H](C)NC(=O)[C@@H]1CSSC[C@H](NC(=O)[C@@H](N)CCCCNC(=O)CC[C@H](NC(=O)CCCCCCCCCCCCCCCCCCC(=O)O)C(=O)O)C(=O)N[C@@H](CC(N)=O)C(=O)N[C@@H]([C@@H](C)O)C(=O)N[C@@H](C)C(=O)N[C@@H]([C@@H](C)O)C(=O)N1)[C@@H](C)O)C(=O)N1CCC[C@H]1C(=O)N[C@@H](CO)C(=O)N[C@@H](CO)C(=O)N[C@H](C(=O)N[C@@H](CC(N)=O)C(=O)N[C@H](C(=O)NCC(=O)N[C@@H](CCCNC(=N)N)C(=O)N[C@@H](CC(N)=O)C(=O)N[C@H](C(=O)N[C@@H](Cc1ccc(O)cc1)C(N)=O)[C@@H](C)O)C(C)C)[C@@H](C)O
notes: synthetic analogue of human amylin; also called compound 85

Assays:
[1] = biological target: T1, human calcitonin receptor; assay: ratio of binding IC50s: human calcitonin receptor over human amylin receptor (reference)
Summary of the method: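 Membranes (35 ng/μL final) + SPA beads, 50 mM Hepes pH 7.4 buffer with 1 mM CaCl2, 5 mM MgCl₂, 0.1% OA, 0.02% Tween20; 120 min, 25° C, shaking; centrifuged, counted; IC₅₀ by one-site binding competition.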

rat calcitonin receptor [2] = biological target: T2, rat calcitonin receptor; assay: SPA competition with 125I-calcitonin, membranes of BHK cells with rat calcitonin receptor (Assay VIII)
rat calcitonin receptor [3] = biological target: T2, rat calcitonin receptor; assay: ratio of binding IC50s: rat calcitonin receptor over rat amylin receptor (reference)
[4] = biological target: T3, rat amylin receptor (rat calcitonin …); assay: SPA competition with 125I-rat amylin, membranes of BHK cells with rat calcitonin receptor + rat RAMP3 (Assay VI)

Row | Binder | Ratio hCT/hAmylin binding [1] | IC50 (rat calcitonin receptor [2]) | Ratio rCT/rAmylin binding (rat calcitonin receptor [3]) | IC50 [4]
1 | B1 | 45.2 | 26.3 nM | 122 | 0.215 nM
2 | B2 | 37.5 | 62 nM | 119 | 0.523 nM
3 | B3 | 87.2 | 61.1 nM | 42.9 | 1.42 nM
4 | B4 | 45.5 | 20.8 nM | 35.8 | 0.581 nM
5 | B5 | 91.8 | 146 nM | 46.5 | 3.14 nM
